{"source": "patent US20140289906A1", "about": "“Compositions Having Dicamba Decarboxylase Activity and Methods of Use” (priority 2013, published 2014)", "assay": "14C assay: 14CO2 capture from [14C]-carboxyl-labeled dicamba with IPTG-induced recombinant E. coli cells", "details": "for Dicamba Decarboxylase Activity: IPTG-induced recombinant E. coli cells, 14CO2 from [14C]-carboxyl-labeled dicamba; for decarboxylation activity of dicamba: among the 108 sequences tested, recombinant E. coli cell assay; for Enzymatic Detection level: dicamba decarboxylation activity", "data": [{"molecule": "2 (protein, listed as Serratia sp.) MAKIICLEEHTLDKALVMASMPAALEQAPFLSDWGKTVTDGNLPDRSRPQIEKNDLINIKGADIGRGRLDDMDVAGITMQVLSVGGFPHLISAAEGVDLNRAANDRLADAVNAHPDRFAAFATLPWAQPDSAEKELERAVKELGFKGALLNGRPSTHFLDHPDYDGLLARFNALGVPLYLHPGLPVRSVQQAYYGGFSDEVTARLSMFGWGWHHEAGIHLLRLILSGAFDKYPNLQVISGHWGEMLPFWLQRLDDSLPQAATGLRRTIAQTFKEQVYVTPSGMLTLPHFQFIYALLGAERIIFSVDYPYQTLDGVKAFIQSLPVPEEAKEAIAFRNAERLLGLTS", "values": [{"measurement": "Dicamba Decarboxylase Activity", "value": "High"}, {"measurement": "decarboxylation activity of dicamba", "value": "showed decarboxylation activity of dicamba"}, {"measurement": "Enzymatic Detection level", "value": "High"}]}, {"molecule": "55 (protein, listed as Serratia sp.) MAKIICLEEHTLDKALVMASMPAALEQAPFLSDWGKTVTDGNLPDRSRPQIEKNDLINIKGADIGRGRLDDMDVAGITMQVLSVGGFPHLISAAEGVDLNRAANDRLADAVNAHPDRFAAFATLPWAQPDSAEKELERAVKELGFKGALLNGRPSTHFLDHPDYDGLLARFNALGVPLYLHPGLPVRSVQQAYYGGFSDEVTARLSMFGWGWHHEAGIHLLRLILSGAFDKYPNLQVISGHWGEMLPFWLQRLDDSLPQAATGLRRTIAQTFKEQVYVTPSGMLTLPHFQFIYALLGAERIIFSVDYPYQTLDGVKAFIQSLPVPEEAKEAIAFRNAERLLGLTS", "values": [{"measurement": "Dicamba Decarboxylase Activity", "value": "High"}, {"measurement": "decarboxylation activity of dicamba", "value": "showed decarboxylation activity of dicamba"}, {"measurement": "Enzymatic Detection level", "value": "High"}]}, {"molecule": "79 (protein, Pyrenophora teres) MATTTTPSTLIATLESHLTPTLAFTSPTTSPTQPALHLIPPTTLTKLRNLGPGRVKDMHMLGHSRQIISHIPVAAPPQICSRFNDAIHAATMTNTAKFSVLAVLPTDGMEAAKELARCVSKYRFVGGVIGLNRGLRINGEGWEELWGLAERLRIPIMFREMWPLAFEIVDYQHHLPYSALGPILTQLHTSHTSSPLPLVRLYLSSVFDHYPSLRLVLAHPGSLPSLVPRIESLINSIPATDKPKRSFLDVWQHNIYLTTADAQDMSSLRALLEQIPVDRVLYASNYPFEERGNELMNELRESEFLTNIEWERVAWVNAETLFNLKEAGTKEARQLTTIPSSRS", "values": [{"measurement": "Dicamba Decarboxylase Activity", "value": "High"}, {"measurement": "decarboxylation activity of dicamba", "value": "showed decarboxylation activity of dicamba"}, {"measurement": "Enzymatic Detection level", "value": "High"}]}, {"molecule": "81 (protein, listed as Verticillium dahliae) MAASTKPKVVDIHTHMYPPSYIDILTSRTAIPVVRTFPQAADPRLILLDAEQQALDAALQDPTAKPPGRPLTSHYASLDQKIHFMDTHSIDISVVSLANPWLDFIEPKEAAATARSVNDEFEAMCASQPGRLFFFAALPLTAPLPALLEAVRHVAELEHCRGVILGTSGLGSGLDDPELVPVLEAVAAAALTVFLHPHYGLPNDVWGPRASAEYGHVLPLALGFPMETTIAVARMYLAGVFDRVPALRMLLAHSGGTLPFLAGRIESCILHDGQLVAEGKVGAARRTIWDVLREQVYLDAVIYSEIGLKAAIAASGGADRLMFGTDHPFFPPLGTDEQAKKESRINAGGSRPMITGNAMINGHGGLCNHITQSDYQDVVL", "values": [{"measurement": "Dicamba Decarboxylase Activity", "value": "High"}, {"measurement": "decarboxylation activity of dicamba", "value": "showed decarboxylation activity of dicamba"}, {"measurement": "Enzymatic Detection level", "value": "High"}]}, {"molecule": "53 (protein, listed as Granulicella tundricola) MARTITLEEHFVTDSFLRATGAYDKPAPPWLAQLQPKLLDLGDGRIAAMDEAGIDLQVLSLAALGFDALDAATATPLVHDINDELAAAVRANPTRLAAFASLALKDPQSAARELERAIQKLGFRGVLLDGTTDGLFLDDPRFTPVFEAAVALNVPIYLHPAPPPESVFDTYFTGLPEGVGQMLSIAGWGWHAETALHTLRLITNGVFDRYPTLQLIIGHMGEMLPMALARTSKALSHAARLRQPVAAYFQSNIHLTTSGYFTQPPLRCALDVVGIDRLMFSIDYPFSANTLGRDYLTELEQTLTPEDLAKLIHRNAESLLNLS", "values": [{"measurement": "Dicamba Decarboxylase Activity", "value": "High"}, {"measurement": "decarboxylation activity of dicamba", "value": "showed decarboxylation activity of dicamba"}, {"measurement": "Enzymatic Detection level", "value": "High"}]}, {"molecule": "51 (protein, listed as Mycobacterium gilvum) MARVIAIEEHYAHPGLQPAEALANLRKHPQLARIQDKLEDLGAGRLADMDAAGIDMQVLSHTVPGAEALPAAQAVDVVRQTNDDLAEVIAAHPDRFAGFAALPMRDPQAAATELQRAVGTLGFCGAMINGLIEGRFLDHPDFTPLLSTAADLGVPLYLHPSFPPPQVAQIYFGGLPPVLADLLATAGWGWHAETALHVLRLISTGVFDRLPELRVIVGHMGEMIPFALARIDTVLSPMTELRQPVAQYFQTNVWFTTSGYTTFPPLQCALSTVGIDRLIFSVDYPYTDNASARALLDTAPISPVDREKLAHATVEALLRV", "values": [{"measurement": "Dicamba Decarboxylase Activity", "value": "High"}, {"measurement": "decarboxylation activity of dicamba", "value": "showed decarboxylation activity of dicamba"}, {"measurement": "Enzymatic Detection level", "value": "High"}]}, {"molecule": "50 (protein, listed as Streptomyces sp.) MARIVTLEEHWTDPAVTAAGMPNLLDHVPGYAAAFDPDTGMPYPRHPELLEDLGAARIADMDRHGITTQVLSLVNTFLPADVAPRLTAAANDAMAAAVEAFPGRFAAFATLPTAVPGAAADELRRCVGELGFVGTMIMGRTDGEFLDQPRFDPILRAASDLSVPVYLHPAPPPVAVSEASYAGGLSPAVSAAFRLAAWGWHQETAVHLLHLVLAGVLDRYPGLQFVLGHWGEFIPFYLDRLDESMPRRMTGLDRTFREYFRDNVFITPSGMFSQAQLRYCADTVGTDRIIHSVDFPMLGNEGAVSFLTDSHLSREDQEKIAHGNADALLGLG", "values": [{"measurement": "Dicamba Decarboxylase Activity", "value": "High"}, {"measurement": "decarboxylation activity of dicamba", "value": "showed decarboxylation activity of dicamba"}, {"measurement": "Enzymatic Detection level", "value": "High"}]}, {"molecule": "57 (protein, Collimonas fungivorans) MAKLICVEEHVLDPAVGAATQSLVRAEAPYLPDWGSRVLDGRHVADRSRPHVIAPSESARKALEMGEPRLADMDAASIDMQVLSYGGFPQLLPAAQAIDLNRAANDKLALAAQAHPARFAGFATLPWQAPEAAARELERAVKQLGLKGALINGRPGDTFLDDARYAPILAAFDELKVPLYVHPGLPLPAVQAPYYGGFERELSARLAMFAWGWHNEAGIQVVRMLLAGVFDRHPRLQLISGHWGEMVPFFLQRLEDSIPQEASGLQRPIVQTYREHVYISPSGMFTLPHFQFIHALMGAQRILYSIDYPYQSLDGARAFIERLPISDTDKALIAHRNAERLLHL", "values": [{"measurement": "Dicamba Decarboxylase Activity", "value": "High"}, {"measurement": "decarboxylation activity of dicamba", "value": "showed decarboxylation activity of dicamba"}, {"measurement": "Enzymatic Detection level", "value": "High"}]}, {"molecule": "58 (protein, Mycobacterium colombiense) MARVIALEEHYATTEFLRGPGTWLASRPGIVEPAGDLGDGRIAAMDQAGVDLAVLSLAAPGVEQLDPDDAVRLARDCNDQLAAAVRRYPDRLAGFATVPTSAPDRAADELERAVRGLGFPGAVINGHSRGRYLDDPFFEPVLARAAELQAPIYLHPTIPPAGVIESSYAGFAEPVTFALATVGWGWHINTATHALRMILGGVFDRHPSLQMIIGHMGEATSFMLPRFDATLKPELTGLNHPVSSYLRENFHYTFANFNDHATYANLVAQVGIERVAFSADYPFGSMVDARAFLDGLPLSDDERAAISHRNAEKLLGL", "values": [{"measurement": "Dicamba Decarboxylase Activity", "value": "High"}, {"measurement": "decarboxylation activity of dicamba", "value": "showed decarboxylation activity of dicamba"}, {"measurement": "Enzymatic Detection level", "value": "High"}]}, {"molecule": "52 (protein, listed as Streptomyces sp.) MAKIIALEEHFSDPAVAKAGAARAQALSPGFAASYSPASGLPYSPSPEVLENLAEKRLADMDAGGITMQVLSGLSAQTVPADVAPALVAGSNDKAAAAVRAHPDRFAAFAALPTAAPEAAVAELDRSVNELGFVGTLIMGRTEGEFLDAPRFEPILARAAALKVPVFLHPGVPPREITDSNYAAGLPTGIGTRLQTAAWGWHQETAVHFLHLVHSGVLDRYPDLQFILGHWGETIPFYLDRVDEALPQRATGLDRSFHEYFRENVYLAPSGMWSQAQLRFCLETFPLERIVFAVDYPFIGNEGAVPFLEKAELPEADKRKIAHENAERLLGL", "values": [{"measurement": "Dicamba Decarboxylase Activity", "value": "High"}, {"measurement": "decarboxylation activity of dicamba", "value": "showed decarboxylation activity of dicamba"}, {"measurement": "Enzymatic Detection level", "value": "High"}]}, {"molecule": "54 (protein, listed as Streptomyces sp.) MAKIIALEEHFSDPAVAKAGAARAQALSPGFAASYSPASGLPYSPSPEVLENLAEKRLADMDAGGITMQVLSGLGAQTVPADVAPALVAGSNDKAAAAVRAHPDRFAAFAALPTAAPEAAVAELDRSINELGFVGTLIMGRTEGEFLDAPRFEPILARAAALKVPVFLHPGVPPREITDSNYAAGLPTGIGTRLQTAAWGWHQETAVHFLHLVHSGVLDRYPGLQFILGHWGEMIPFYLDRVDEALPQRATGLDRSFHEYFRENVYLAPSGMWSQAQLRFCLETVPLERIVFAVDYPFIGNEGAVPFLEKAELPEADKRKIAHENAERLLGL", "values": [{"measurement": "Dicamba Decarboxylase Activity", "value": "High"}, {"measurement": "decarboxylation activity of dicamba", "value": "showed decarboxylation activity of dicamba"}, {"measurement": "Enzymatic Detection level", "value": "High"}]}, {"molecule": "56 (protein, Enterobacter aerogenes) MAKIICLEEHYLDSELGRACMPVALEQAPFLGDWGKTVADGHNPDRSRPQIEKNALINAKGADLGSRRLRDMDEAGITLQILSVGGFPQLAPEDEAVTLNTAANDRLAEAVRNHPDRFAAFATLPWAQPKDAENELVRAVEKLGFKGALLNGRPSSCFLDHPDYDSLLSRFNKLNVPLYLHPGLPLKSVQQAYFTGFSAEVNARLSMFGWGWHHEAGIHLLRLMLSGAFDKYPNMQVISGHWGEMLPFWLQRLDDSLPLAATGLSRTLTRTFQEHVYVTPSGMLTLPHFKFIYELMGAERILFSVDYPYQTLDGVKTFIDSLPVNKAEKEAIAFRNAERLLGITA", "values": [{"measurement": "Dicamba Decarboxylase Activity", "value": "High"}, {"measurement": "decarboxylation activity of dicamba", "value": "showed decarboxylation activity of dicamba"}, {"measurement": "Enzymatic Detection level", "value": "High"}]}, {"molecule": "87 (protein, listed as Novosphingobium sp.) MASDIATAADLQTGGRQGYLRIATEEAFATRDQIDVYLRMVRDGTADRGMTSLWGFYAQSPSARATQIIERLLDLGEQRLADMDAAGIDKAVLALTSPGVQPLLDMEEARRIAGNANDRLAERCAAHPDRFIGMTAVAPQDPQWSAREILRGATQLGFKGVQINSHTQGRYLDEPFFDPIFRALGDVGQPLYIHPGTPPDSMIGPLLDAGLDGAIYGFGVETGMHLLRLITAGIFDRYPDLQIMVGHMGEALPYWLYRLDYMHQAGIRSQRYERMRPLKRTIAGYFRSNVLVTCSGMAWEPAIQFARQVMGEDRVMYAMDYPYQYEADEVRALDVMDLSPESKRKFFQTNAERWFDL", "values": [{"measurement": "Dicamba Decarboxylase Activity", "value": "High"}, {"measurement": "decarboxylation activity of dicamba", "value": "showed decarboxylation activity of dicamba"}, {"measurement": "Enzymatic Detection level", "value": "High"}]}]}
